This note sets out measurements from publication PMC10410066.

The experiment concerns the target inhibitor of nuclear factor kappa B kinase subunit beta (IKBKB), FLAG-tagged (UniProt O14920). Kind of experiment: TR-FRET protein-protein interaction assay (2B7-Tb/anti-FLAG-D2). The settings on record: peak of the lysate titration curve (mutant peak at about 3 ug/well, WT peak at about 5 ug/well); HEK293T lysates; parent: est. 0.30; read off a plot. In general terms: In TR-FRET formats the signal depends on donor and acceptor labels being close together.

For the substance “N571 Q55 HTT (N-terminal huntingtin fragment 1-571 with 55 glutamines) S13A; S16A”, the response (Fluorescence Ratio (665/615)) came out at 0.26.
